# Results reported in the supplement of paper PMC10567573.
# B1: TNXB (parent)
# chain: FSEIRETSAKVNWMPPPSRADSFK
# Variants of: B1
# Test: protein stability index of a GFP-peptide fusion (GPS, HEK-293T) (PSI 1-6); higher = more stable
# Conditions: c terminus: a fixed tail appended
# 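Further: lentivirally expressed fusions sorted by FACS into six bins by GFP to DsRed ratio, PSI derived from sequencing read proportions per bin multiplied by bin number.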
row,Variant,protein stability index
1,FSEIRETSAKVNWGPPPSRADSFK,3.63
2,FSEIRETSAKVNWDPPPSRADSFK,3.91
3,FSEIRETSAKVNWYPPPSRADSFK,2.64
4,FSEIRETSAKVNWVPPPSRADSFK,2.96
5,FSEIRETSAKVNWWPPPSRADSFK,2.98
6,FSEIRETSAKVNWAPPPSRADSFK,3.17
7,FSEIRETSAKVNWRPPPSRADSFK,4.26
8,FSEIRETSAPVNWMPPPSRADSFK,3.52
9,FSEIRETSAHVNWMPPPSRADSFK,3.32
10,FSEIRETSAGVNWMPPPSRADSFK,3.28
11,FSEIRETSASVNWMPPPSRADSFK,3.76
12,FGEIRETSAKVNWMPPPSRADSFK,2.97
13,FMEIRETSAKVNWMPPPSRADSFK,3.17
14,FQEIRETSAKVNWMPPPSRADSFK,3.97
15,FNEIRETSAKVNWMPPPSRADSFK,4.04
16,FFEIRETSAKVNWMPPPSRADSFK,2.65
17,FYEIRETSAKVNWMPPPSRADSFK,3
18,FPEIRETSAKVNWMPPPSRADSFK,3.65
19,FSEIRELSAKVNWMPPPSRADSFK,2.69
20,FSEIREFSAKVNWMPPPSRADSFK,1.78
21,FSEIREVSAKVNWMPPPSRADSFK,2.97
22,FSEIRESSAKVNWMPPPSRADSFK,3.22
23,FSEIREESAKVNWMPPPSRADSFK,3.88
24,FSEIREDSAKVNWMPPPSRADSFK,3.86

row,Variant,protein stability index
1,FSEIREHSAKVNWMPPPSRADSFK,3.1
2,FSEIREPSAKVNWMPPPSRADSFK,3.64
3,FSEIREISAKVNWMPPPSRADSFK,2.9
4,FSEIRETSAKVDWMPPPSRADSFK,3.83
5,FSEIRETSAKVWWMPPPSRADSFK,2.2
6,FSEIRETSAKVTWMPPPSRADSFK,2.9
7,FSEIRETSAKVYWMPPPSRADSFK,2.09
8,FSEIRETSAKVIWMPPPSRADSFK,3.24
9,FSEIRETSAKVNWMPPPSAADSFK,3.52
10,FSEIRETSAKVNWMPPPSKADSFK,3.6
11,FSEIRETSAKVNWMPPPSGADSFK,3.43
12,FSEIRETSAKVNWMPPPSDADSFK,4.25
13,FSEIRETSAKVNWMPPPSCADSFK,3.33
14,FSEIRETSAKVNWMPPPSNADSFK,3.85
15,FSEIRETSAKVNWMPPPSHADSFK,3.15
16,FSEIRETSAKVNWMPPPSEADSFK,4.2
17,FSEIRETSAKVNWMPPPSYADSFK,3.19
18,FSEIRETSAKVNWMPPPSWADSFK,2.18
19,FSEIRETSAKVNWMPPPSQADSFK,3.6
20,FSEIRETSAKVNWMPPPSVADSFK,3.38
21,SSEIRETSAKVNWMPPPSRADSFK,4.48
22,HSEIRETSAKVNWMPPPSRADSFK,3.94
23,DSEIRETSAKVNWMPPPSRADSFK,5.04
24,CSEIRETSAKVNWMPPPSRADSFK,3.69

row,Variant,protein stability index
1,ASEIRETSAKVNWMPPPSRADSFK,4.29
2,PSEIRETSAKVNWMPPPSRADSFK,4.76
3,WSEIRETSAKVNWMPPPSRADSFK,3.6
4,MSEIRETSAKVNWMPPPSRADSFK,4.15
5,GSEIRETSAKVNWMPPPSRADSFK,4.22
6,FSEIRETSAKVNWMEPPSRADSFK,3.49
7,FSEIRETSAKVNWMWPPSRADSFK,2.56
8,FSEIRETSAKVNWMKPPSRADSFK,3.33
9,FSEIRETSAKVNWMSPPSRADSFK,3.15
10,FSEIRETSAKVNWMCPPSRADSFK,2.71
11,FSEIRETSAKVNWMTPPSRADSFK,3.38
12,FSEIRETSAKVNWMAPPSRADSFK,3.51
13,FSEIRETSAKVNWMNPPSRADSFK,3.12
14,FSEIYETSAKVNWMPPPSRADSFK,3.04
15,FSEITETSAKVNWMPPPSRADSFK,3.87
16,FSEIPETSAKVNWMPPPSRADSFK,4.12
17,FSEIWETSAKVNWMPPPSRADSFK,2.02
18,FSEIFETSAKVNWMPPPSRADSFK,2.86
19,FSEINETSAKVNWMPPPSRADSFK,3.79
20,FSEILETSAKVNWMPPPSRADSFK,3.51
21,FSEIVETSAKVNWMPPPSRADSFK,3.52
22,FSEIRITSAKVNWMPPPSRADSFK,1.82
23,FSEIRFTSAKVNWMPPPSRADSFK,2.22
24,FSEIRATSAKVNWMPPPSRADSFK,3.31

row,Variant,protein stability index
1,FSEIRQTSAKVNWMPPPSRADSFK,2.02
2,FSEIRLTSAKVNWMPPPSRADSFK,2.28
3,FSEIRHTSAKVNWMPPPSRADSFK,3.38
4,FSEIRGTSAKVNWMPPPSRADSFK,3.03
5,FSEIRTTSAKVNWMPPPSRADSFK,2.95
6,FSEIRNTSAKVNWMPPPSRADSFK,2.69
7,FSEIRSTSAKVNWMPPPSRADSFK,2.64
8,FSEIRETSAKVNWMPPPPRADSFK,3.42
9,FSEIRETSAKVNWMPPPCRADSFK,3.37
10,FSEIRETSAKVNWMPPPIRADSFK,2.46
11,FSEIRETSAKVNWMPPPARADSFK,3.68
12,FSEIRETSAKVNWMPPPKRADSFK,3.57
13,FSEIRETSAKVNWMPPPTRADSFK,3.16
14,FSDIRETSAKVNWMPPPSRADSFK,3.37
15,FSFIRETSAKVNWMPPPSRADSFK,2.38
16,FSHIRETSAKVNWMPPPSRADSFK,2.62
17,FSKIRETSAKVNWMPPPSRADSFK,3.68
18,FSLIRETSAKVNWMPPPSRADSFK,2.47
19,FSMIRETSAKVNWMPPPSRADSFK,2.55
20,FSAIRETSAKVNWMPPPSRADSFK,2.4
21,FSVIRETSAKVNWMPPPSRADSFK,2.44
22,FSEIRETIAKVNWMPPPSRADSFK,2.73
